Reference: patent US20210393745A1, “OLIGOMER EXTENDED INSULIN-FC CONJUGATES AND THEIR MEDICAL USE” (Novo Nordisk A/S, priority 2018, published 2021)

Experiments:
[1] = molecular target: human insulin receptor isotype B (human) (UniProt P06213); experiment: SPA competition with [125I-A14Y]-human insulin, membrane-associated human IR-B; relative to human insulin standard
[2] = molecular target: T1, human insulin receptor isotype A (human, UniProt P06213-2); experiment: SPA competition with [125I-A14Y]-human insulin, membrane-associated human IR-A; relative to human insulin standard
Experimental: (§1) Membrane-associated human IR and IGF-1R are purified from BHK cells stably transfected with the pZem219B vector containing either the human IR-A, IR-B or IGF-IR insert. BHK cells are harvested and homogenized in ice-cold buffer (25 mM HEPES pH 7.4, 25 mM CaCl₂ and 1 mM MgCl₂, 250 mg/L bacitracin, 0.1 mM Pefablock). The homogenates are layered on a 41% (w/v) sucrose cushion and centrifuged for 75 minutes at 95000 g at 4° C. The plasma membranes are collected, diluted 1:5 with buffer (as above) and centrifuged again for 45 minutes at 40000 g at 4° C. The pellets are resuspended in a minimal volume of buffer and drawn through a needle (size 23) three times before storage at −80° C. until usage. The relative binding affinity for either of the membrane-associated human IR-A, IR-B or IGF-1R is determined by competition binding in a SPA setup. IR assays are performed in duplicate in 96-well OptiPlates (Perkin-Elmer Life Sciences). Membrane protein is incubated with gentle agitation for 150 minutes at 25° C. with 50 pM [¹²⁵IA14Y]-human insulin in a total volume of […] assay buffer (50 mM HEPES, 150 mM NaCl, 5 mM MgSO4, 0.01% Triton X-100, 0.1% (w/v) HSA (Sigma A1887), Complete EDTA-free protease inhibitors), 50 μg of wheat germ agglutinate (WGA)-coated PVT microspheres (GE Healthcare) and increasing concentrations of ligand. Assays are terminated by centrifugation of the plate at 2000 rpm for 2 minutes and bound radioactivity quantified by counting on a TopCount NXT (Perkin-Elmer Life Sciences).
(§2) IGF-1R assays are conducted essentially as for the IR binding assays except that membrane-associated IGF-1R and 50 pM [¹²⁵I-Tyr31]-human IGF-1 were employed.

[3] = molecular target: T1, human insulin receptor isotype A; experiment: SPA competition with [125I-A14Y]-human insulin, solubilised human IR-A; relative to human insulin (100%)
hFcRn ectodomain = hFcRn ectodomain (human, UniProt P55899); experiment: SPR (Biacore 4000), conjugate immobilised by amine coupling, hFcRn ectodomain as analyte, pH 6.0, 25 C, steady-state fit
[4] = molecular target: human insulin-like growth factor-1 receptor (human, UniProt P08069); experiment: SPA competition with [125I-Tyr31]-human IGF-1, membrane-associated human IGF-1R; relative to human insulin standard
Experimental: as §1, §2

**Q.** How did the Rel. aff. (%) [1] turn out when “(A14E, A21G, A22(GQEP)12, A70K^, A71P, B25H, B29R, desB30 human insulin)/(226A, 227G, 228P, 234A, 235K, 297E, 315Q, 384Q, des447 hIgG4-Fc(226-447))3,5-bis[(2-acetyl)amino]benzoyl conjugate” was run?
**A.** 3.05%

**Q.** “(A14E, A21G, A22(GQEP)11, A66G, A67Q, A68E, A69K^, A70P, B16H, B25H, B29R, desB30 human insulin)/(226A, 227G, 228P, 234A, 235K, 297E, 315Q, 384Q, des447 hIgG4-Fc(226-447))3,5-bis[(2-acetyl)amino]benzoyl conjugate” was tested. Which Rel. aff. (%) [1] did it give?
**A.** 1.26%

**Q.** Which Rel. aff. (%) [1] does the source give for “(A14E, A21G, A22(GQEP)11, A66G, A67Q, A68E, A69K^, A70P, B16E, B25H, B29R, desB30 human insulin)/(226A, 227G, 228P, 234A, 235K, 297E, 315Q, 384Q, des447 hIgG4-Fc(226-447))3,5-bis[(2-acetyl)amino]benzoyl conjugate” here?
**A.** 0.59%

B1: (A14E, A21G, A22(GQEP)12, A70K^, A71P, B25H, B29R, desB30 human insulin)/(226A, 227G, 228P, 234A, 235K, 297E, 315Q, 384Q, des447 … (other)
chain 1: GIVEQCCTSICSLEQLENYCGGQEPGQEPGQEPGQEPGQEPGQEPGQEPGQEPGQEPGQEPGQEPGQEPKP
chain 2: FVNQHLCGSHLVEALYLVCGERGFHYTPR
chain 3: AGPCPAPEAKGGPSVFLFPPKPKDTLMISRTPEVTCVVVDVSQEDPEVQFNWYVDGVEVHNAKTKPREEQFESTYRVVSVLTVLHQDWLQGKEYKCKVSNKGLPSSIEKTISKAKGQPREPQVYTLPPSQEEMTKNQVSLTCLVKGFYPSDIAVEWESQGQPENNYKTTPPVLDSDGSFFLYSRLTVDKSRWQEGNVFSCSVMHEALHNHYTQKSLSLSLG
modifications: epsilon amino group of Lys A70 (A70K) carries the trivalent linker 3,5-bis[(2-acetyl)amino]benzoyl, which bridges to Cys229 of both Fc polypeptides; ; thiol of Cys229 (EU numbering) linked to -C(O)-CH2- of the linker; aglycosylated (made in E. coli)
**Q.** How did the “Rel. aff. (%)” value [2] turn out when B1 was run?
**A.** 2.97%

**Q.** What about the “Insulin receptor affinity [IC50 relative to HI (%)]” value [3] of the same molecule?
**A.** 4.5%

**Q.** And the Kd (hFcRn ectodomain)?
**A.** 1.5 µM

**Q.** What about the “Rel. aff. (%)” value [4] of the same molecule?
**A.** 0.91%

B2: (A14E, A21G, A22(GQEP)11, A66G, A67Q, A68E, A69K^, A70P, B16H, B25H, B29R, desB30 human insulin)/(226A, 227G, 228P, 234A, 235K, 297E, 315Q, 384Q, des447 … (other)
chain 1: GIVEQCCTSICSLEQLENYCGGQEPGQEPGQEPGQEPGQEPGQEPGQEPGQEPGQEPGQEPGQEPGQEKP
chain 2: FVNQHLCGSHLVEALHLVCGERGFHYTPR
chain 3: AGPCPAPEAKGGPSVFLFPPKPKDTLMISRTPEVTCVVVDVSQEDPEVQFNWYVDGVEVHNAKTKPREEQFESTYRVVSVLTVLHQDWLQGKEYKCKVSNKGLPSSIEKTISKAKGQPREPQVYTLPPSQEEMTKNQVSLTCLVKGFYPSDIAVEWESQGQPENNYKTTPPVLDSDGSFFLYSRLTVDKSRWQEGNVFSCSVMHEALHNHYTQKSLSLSLG
modifications: epsilon amino group of Lys A69 (A69K) carries the trivalent linker 3,5-bis[(2-acetyl)amino]benzoyl, which bridges to Cys229 of both Fc polypeptides; ; thiol of Cys229 (EU numbering) linked to -C(O)-CH2- of the linker; aglycosylated (made in E. coli)
**Q.** Which “Rel. aff. (%)” value [2] does the source give for B2 here?
**A.** 1.27%

**Q.** What about the “Insulin receptor affinity [IC50 relative to HI (%)]” value [3] of the same molecule?
**A.** 1.6%

**Q.** What about the Kd (hFcRn ectodomain) of the same molecule?
**A.** 1.6 µM

**Q.** And the “Rel. aff. (%)” value [4]?
**A.** 0.1%

B3: (A14E, A21G, A22(GQEP)11, A66G, A67Q, A68E, A69K^, A70P, B16E, B25H, B29R, desB30 human insulin)/(226A, 227G, 228P, 234A, 235K, 297E, 315Q, 384Q, des447 … (other)
chain 1: GIVEQCCTSICSLEQLENYCGGQEPGQEPGQEPGQEPGQEPGQEPGQEPGQEPGQEPGQEPGQEPGQEKP
chain 2: FVNQHLCGSHLVEALELVCGERGFHYTPR
chain 3: AGPCPAPEAKGGPSVFLFPPKPKDTLMISRTPEVTCVVVDVSQEDPEVQFNWYVDGVEVHNAKTKPREEQFESTYRVVSVLTVLHQDWLQGKEYKCKVSNKGLPSSIEKTISKAKGQPREPQVYTLPPSQEEMTKNQVSLTCLVKGFYPSDIAVEWESQGQPENNYKTTPPVLDSDGSFFLYSRLTVDKSRWQEGNVFSCSVMHEALHNHYTQKSLSLSLG
modifications: epsilon amino group of Lys A69 (A69K) carries the trivalent linker 3,5-bis[(2-acetyl)amino]benzoyl, which bridges to Cys229 of both Fc polypeptides; ; thiol of Cys229 (EU numbering) linked to -C(O)-CH2- of the linker; aglycosylated (made in E. coli)
**Q.** With B3 as the molecule, how does the “Rel. aff. (%)” value [2] read?
**A.** 0.66%

**Q.** What about the “Insulin receptor affinity [IC50 relative to HI (%)]” value [3] of the same molecule?
**A.** 0.4%

**Q.** What about the Kd (hFcRn ectodomain) of the same molecule?
**A.** 1.5 µM

**Q.** And the “Rel. aff. (%)” value [4]?
**A.** 0.29%
